Reference: patent US20220160663A1 (SEOUL NATIONAL UNIVERSITY R AND DB FOUNDATION, published 2022)

Target: T1, Glut1 (accession number: NP_006507) WT, HA-tagged (UniProt P11166 1-492)
T1 construct: Expressed in THP-1 cells from a plasmid; Detected in the pull-down by anti-HA Western blot; also called WT Glut1; Glut-HA; not shown: HA tag
T1 sequence (looked up): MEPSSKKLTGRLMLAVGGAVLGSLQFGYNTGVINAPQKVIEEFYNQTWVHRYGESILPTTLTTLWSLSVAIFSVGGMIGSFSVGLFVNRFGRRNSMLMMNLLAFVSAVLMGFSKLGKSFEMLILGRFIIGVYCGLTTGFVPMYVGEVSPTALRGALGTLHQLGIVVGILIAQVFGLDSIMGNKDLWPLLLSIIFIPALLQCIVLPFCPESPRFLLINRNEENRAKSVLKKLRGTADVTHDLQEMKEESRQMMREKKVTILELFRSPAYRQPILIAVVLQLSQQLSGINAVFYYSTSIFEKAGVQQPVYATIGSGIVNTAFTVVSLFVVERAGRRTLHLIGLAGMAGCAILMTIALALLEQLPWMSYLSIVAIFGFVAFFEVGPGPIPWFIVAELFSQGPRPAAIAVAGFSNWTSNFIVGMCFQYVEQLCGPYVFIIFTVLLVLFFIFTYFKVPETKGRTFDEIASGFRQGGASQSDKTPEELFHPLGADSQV
Test: Strep pull-down from THP-1 cell extract, anti-HA Western blot
Method: THP-1 cell line was transfected with expression plasmids for TM4SF5-Strep (control vector, WT, N-Glycosylation-deficient mutant; N138A/N155Q), Palmitoylation-deficient mutant (C2/6/9/75/76/80/81/85/189A), Glut1 (accession number: NP_006507) WT, Glut1 K38A, and Glut1 E329Q, and after 48 hours, cell extracts were obtained. The binding of TM4SF5 and Glut1 was confirmed by Western blotting of Glut-HA using an anti-HA antibody by pulling-down with strepavidin agarose resin (Thermo Fisher Scientific).

binding result: no binding
B1: TM4SF5-Strep N-Glycosylation-deficient mutant N138A/N155Q (other, human, UniProt O14894 1-197, looked up)
chain: MCTGKCARCVGLSLITLCLVCIVANALLLVPNGETSWTNTNHLSLQVWLMGGFIGGGLMVLCPGIAAVRAGGKGCCGAGCCGNRCRMLRSVFSSAFGVLGAIYCLSVSGAGLRNGPRCLMNGEWGYHFEDTAGAYLLARTLWDRCEAPPRVVPWQVTLFSLLVAASCLEIVLCGIQLVNATIGVFCGDCRKKQDTPH
notes: Expressed in THP-1 cells and pulled down from the cell extract with streptavidin agarose; not shown: Strep tag
